Data published in paper PMC9352680, “A comprehensive thermodynamic model for RNA binding by the Saccharomyces cerevisiae Pumilio protein PUF4”.
Changes are numbered by the printed parent chain. In names and notes the source's numbering stands.

T1: PUF4 RNA-binding domain (Saccharomyces cerevisiae, UniProt P25339 537-888)
T1 sequence: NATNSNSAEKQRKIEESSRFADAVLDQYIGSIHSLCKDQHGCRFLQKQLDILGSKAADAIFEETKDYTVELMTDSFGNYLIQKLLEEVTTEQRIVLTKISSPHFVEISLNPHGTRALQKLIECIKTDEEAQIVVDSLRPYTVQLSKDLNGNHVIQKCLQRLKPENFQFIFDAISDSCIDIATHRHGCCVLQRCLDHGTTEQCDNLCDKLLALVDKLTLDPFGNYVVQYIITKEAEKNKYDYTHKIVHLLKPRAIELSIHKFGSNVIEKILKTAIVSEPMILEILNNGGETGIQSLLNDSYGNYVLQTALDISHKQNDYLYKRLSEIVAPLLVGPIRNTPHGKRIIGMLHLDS

B1: Ib_S4_P3E.1_K3.1_C3.1_H3.1_A3.1_F3.1_[T7C]_[A8G]_T3.1 (ssRNA)
RNA: UUUGACAACUGAUCGUUCUUUCUUGUAUACGUUCUUUCUCGAUCAGUUGUCUUU
B2: Ib_S4_P3E.1_K3.1_C3.1_H3.1_A3.1_F3.1_[T7C]_[A8C]_T3.1 (ssRNA)
RNA: B1 RNA with G31C
B3: Ib_S4_P3E.1_K3.1_C3.1_H3.1_[T1A]_A3.1_F3.1_[T7C]_T3.1 (ssRNA)
RNA: B1 RNA with U24A, G31A

What follows are binders tested against T1, PUF4 RNA-binding domain (assay: Mg; RNA-MaP; 20 mM Na-HEPES pH 7.4, 30 mM KOAc, 0.75 mM MgCl2, 0.1% Tween-20, 5% glycerol, 0.1 mg/mL BSA, 2 mM DTT; 25 C; 0.0125-409.6 nM protein). Settings: tags: N-His6-TEV cleaved; C-SNAP kept, Cy3B-labelled; label: tethered on chip by stalled RNA polymerase.

Row | Binder | Kd
1 | B1 | 60.4 nM
2 | B2 | 28.9 nM
3 | B3 | > 2300 nM
4 | ACAAACUGGAUUACUAACAAAC (ssRNA) [Ib_S3_P5E.1_K5.1_C5.1_H5.1_[T3G]_A5.1_F5.1_[T8C]_T5.1] | > 2300 nM
5 | ACAAACUUUAAUAUUAACAAAC (ssRNA) [Ib_S3_P5E.1_K5.1_C5.1_H5.1_[G2T]_A5.1_[T5A]_F5.1_T5.1] | > 2300 nM
6 | ACAAACGGUAUUUUUAACAAAC (ssRNA) [Ib_S3_P5E.1_K5.1_C5.1_H5.1_[T1G]_A5.1_[A7T]_F5.1_T5.1] | 1600 nM
7 | ACAAACUAUUUAUUAACAAAC (ssRNA) [Ib_S3_P4E.1_K4.1_C4.1_H4.1_[G2A]_[A4T]_A4.1_F4.1_T4.1] | > 2300 nM
8 | UCUCUUUAUAUAUAUCUCUU (ssRNA) [Ia_S1_P3E.1_K3.1_C3.1_H3.1_[G2A]_A3.1_F3.1_T3.1] | 637 nM
9 | UCUCUUUGUAUACAUCUCUU (ssRNA) [Ia_S1_P3E.1_K3.1_C3.1_H3.1_A3.1_F3.1_[T7C]_T3.1] | 44.6 nM
10 | ACAAACCGUAUUAUUCACAAAC (ssRNA) [Ib_S3_P5E.1_K5.1_C5.1_H5.1_[T1C]_A5.1_F5.1_[A10C]_T5.1] | > 2300 nM
11 | ACAAACUGCAUUACUAACAAAC (ssRNA) [Ib_S3_P5E.1_K5.1_C5.1_H5.1_[T3C]_A5.1_F5.1_[T8C]_T5.1] | > 2300 nM
12 | ACAAACAGUAUCUUAACAAAC (ssRNA) [Ib_S3_P4E.1_K4.1_C4.1_H4.1_[T1A]_A4.1_[A6C]_F4.1_T4.1] | > 2300 nM
13 | ACAAACUGUCCUAUUAACAAAC (ssRNA) [Ib_S3_P5E.1_K5.1_C5.1_H5.1_[A4C]_A5.1_[T5C]_F5.1_T5.1] | 545 nM
14 | ACAAACUGCAUAAUAACAAAC (ssRNA) [Ib_S3_P4E.1_K4.1_C4.1_H4.1_[T3C]_A4.1_[T7A]_F4.1_T4.1] | 1450 nM
15 | ACAAACAGGAUUAUUAACAAAC (ssRNA) [Ib_S3_P5E.1_K5.1_C5.1_H5.1_[T1A]_[T3G]_A5.1_F5.1_T5.1] | > 2300 nM
16 | ACAAACCGUAUUUUUAACAAAC (ssRNA) [Ib_S3_P5E.1_K5.1_C5.1_H5.1_[T1C]_A5.1_[A7T]_F5.1_T5.1] | > 2300 nM

Row | Binder | Kd
17 | ACAAACUGUCUUACUAACAAAC (ssRNA) [Ib_S3_P5E.1_K5.1_C5.1_H5.1_[A4C]_A5.1_F5.1_[T8C]_T5.1] | 1030 nM
18 | ACAAACAGUAUUUUUAACAAAC (ssRNA) [Ib_S3_P5E.1_K5.1_C5.1_H5.1_[T1A]_A5.1_[A7T]_F5.1_T5.1] | > 2300 nM
19 | ACAAACAGUAAAUUAACAAAC (ssRNA) [Ib_S3_P4E.1_K4.1_C4.1_H4.1_[T1A]_A4.1_[T5A]_F4.1_T4.1] | 596 nM
20 | ACAAACUGAAUUAUAAACAAAC (ssRNA) [Ib_S3_P5E.1_K5.1_C5.1_H5.1_[T3A]_A5.1_F5.1_[T9A]_T5.1] | > 2300 nM
21 | ACAAACUCCAUAUUAACAAAC (ssRNA) [Ib_S3_P4E.1_K4.1_C4.1_H4.1_[G2C]_[T3C]_A4.1_F4.1_T4.1] | > 2300 nM
22 | ACAAACAGUAUCAUUAACAAAC (ssRNA) [Ib_S3_P5E.1_K5.1_C5.1_H5.1_[T1A]_A5.1_[T6C]_F5.1_T5.1] | > 2300 nM
23 | ACAAACUUUAUCAUUAACAAAC (ssRNA) [Ib_S3_P5E.1_K5.1_C5.1_H5.1_[G2T]_A5.1_[T6C]_F5.1_T5.1] | > 2300 nM
24 | ACAAACCUUAUUAUUAACAAAC (ssRNA) [Ib_S3_P5E.1_K5.1_C5.1_H5.1_[T1C]_[G2T]_A5.1_F5.1_T5.1] | > 2300 nM
25 | ACAAACUAUAUUAUUUACAAAC (ssRNA) [Ib_S3_P5E.1_K5.1_C5.1_H5.1_[G2A]_A5.1_F5.1_[A10T]_T5.1] | 994 nM
26 | ACAAACUGAAUAAUAACAAAC (ssRNA) [Ib_S3_P4E.1_K4.1_C4.1_H4.1_[T3A]_A4.1_[T7A]_F4.1_T4.1] | > 2300 nM
27 | ACAAACUGUCUUAUUUACAAAC (ssRNA) [Ib_S3_P5E.1_K5.1_C5.1_H5.1_[A4C]_A5.1_F5.1_[A10T]_T5.1] | 641 nM
28 | ACAAACUCCAUUAUUAACAAAC (ssRNA) [Ib_S3_P5E.1_K5.1_C5.1_H5.1_[G2C]_[T3C]_A5.1_F5.1_T5.1] | > 2300 nM
29 | ACAAACCGUAUUUUAACAAAC (ssRNA) [Ib_S3_P4E.1_K4.1_C4.1_H4.1_[T1C]_A4.1_[A6T]_F4.1_T4.1] | 1400 nM
30 | ACAAACGGUCUUAUUAACAAAC (ssRNA) [Ib_S3_P5E.1_K5.1_C5.1_H5.1_[T1G]_[A4C]_A5.1_F5.1_T5.1] | > 2300 nM
31 | ACAAACCGUAGAUUAACAAAC (ssRNA) [Ib_S3_P4E.1_K4.1_C4.1_H4.1_[T1C]_A4.1_[T5G]_F4.1_T4.1] | 455 nM
